The target of assay [1] is LGR8 (RXFP2) receptor (UniProt Q8WXD0 1-754, limits assumed). Description: cell-based or functional assay.
Assay [2] has as its target T1, LGR7 (RXFP1) receptor (UniProt Q9HBX9 1-757, limits assumed).
T1 sequence (looked up): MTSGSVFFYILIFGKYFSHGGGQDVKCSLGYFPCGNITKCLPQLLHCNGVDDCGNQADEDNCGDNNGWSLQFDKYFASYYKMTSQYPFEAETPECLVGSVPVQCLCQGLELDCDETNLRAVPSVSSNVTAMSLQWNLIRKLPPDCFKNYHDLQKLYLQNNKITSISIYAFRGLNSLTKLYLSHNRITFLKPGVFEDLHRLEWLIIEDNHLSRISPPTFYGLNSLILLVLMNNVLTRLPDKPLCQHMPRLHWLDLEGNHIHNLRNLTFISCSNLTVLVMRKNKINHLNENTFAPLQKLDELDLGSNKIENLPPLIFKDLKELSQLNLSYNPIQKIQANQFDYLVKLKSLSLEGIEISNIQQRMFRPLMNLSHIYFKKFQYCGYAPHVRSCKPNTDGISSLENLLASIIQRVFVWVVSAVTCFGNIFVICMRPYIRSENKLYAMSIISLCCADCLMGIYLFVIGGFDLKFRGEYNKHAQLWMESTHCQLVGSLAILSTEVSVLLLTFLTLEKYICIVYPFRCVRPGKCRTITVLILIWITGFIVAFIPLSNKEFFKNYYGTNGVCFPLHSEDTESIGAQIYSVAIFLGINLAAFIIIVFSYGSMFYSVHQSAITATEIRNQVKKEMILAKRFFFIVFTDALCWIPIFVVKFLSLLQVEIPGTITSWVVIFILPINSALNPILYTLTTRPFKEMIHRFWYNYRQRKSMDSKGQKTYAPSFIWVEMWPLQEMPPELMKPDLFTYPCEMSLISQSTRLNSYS
The experiment in a line: cell-based or functional assay.

The target of assay [3] is T1, LGR7 (RXFP1) receptor. The experiment in a line: whole cell competition binding against 100 pM [125I]-H2 relaxin, LGR7-transfected HEK293T cells.
Method: Non-specific binding was determined by addition of excess unlabelled relaxin (500 nM). Data were analysed using GraphPad Prism.

No end group written: not given here. Where only a bound is given, the exact number is not on record here.

5 molecules from patent US20110092418A1 (FLOREKY INSTITUTE OF EXPERIMENTAL PHYSIOLOGY AND MEDICINE, published 2011) can be followed below.

Chain of LGR8 (RXFP2) receptor (Q8WXD0 whole entry): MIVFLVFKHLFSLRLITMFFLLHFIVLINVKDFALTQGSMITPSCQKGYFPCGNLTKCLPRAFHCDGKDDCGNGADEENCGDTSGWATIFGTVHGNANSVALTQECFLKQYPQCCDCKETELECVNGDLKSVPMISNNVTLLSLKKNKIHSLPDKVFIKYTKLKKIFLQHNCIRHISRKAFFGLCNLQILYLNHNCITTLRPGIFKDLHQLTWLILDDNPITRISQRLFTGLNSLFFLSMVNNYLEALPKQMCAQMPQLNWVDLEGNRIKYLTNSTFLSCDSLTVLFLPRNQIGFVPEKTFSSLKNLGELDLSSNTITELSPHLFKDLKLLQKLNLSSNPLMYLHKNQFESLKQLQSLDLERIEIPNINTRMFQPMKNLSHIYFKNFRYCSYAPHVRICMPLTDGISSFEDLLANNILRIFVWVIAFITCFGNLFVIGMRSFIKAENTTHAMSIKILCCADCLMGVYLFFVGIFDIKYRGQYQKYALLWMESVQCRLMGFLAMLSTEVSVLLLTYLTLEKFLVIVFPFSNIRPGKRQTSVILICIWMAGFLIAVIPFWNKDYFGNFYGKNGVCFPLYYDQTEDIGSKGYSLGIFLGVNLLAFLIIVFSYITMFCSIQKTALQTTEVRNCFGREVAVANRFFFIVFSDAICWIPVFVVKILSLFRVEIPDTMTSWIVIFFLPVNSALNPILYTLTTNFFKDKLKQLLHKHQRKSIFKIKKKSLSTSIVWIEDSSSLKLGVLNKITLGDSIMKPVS

B1: human relaxin 2 (H2), wild-type; A + B chain (ligand)
chain 1: DSWMEEVIKLCGRELVRAQIAICGMSTWS
chain 2: QLYSALANKCCHVGCTKRSLARFC
modifications: disulfide (positions not given here); also: A and B chains joined by disulphide bonds, places not given here
notes: Two-chain peptide hormone, A and B chains joined by disulphide bonds; also called H2 relaxin
Take B1: the “LGR8 cAMP pEC50” value in assay [1] was determined as 9.13 pEC50. In addition, the “LGR7 cAMP pEC50” value in assay [2] worked out at 10.3 pEC50. In assay [3], this molecule displayed a pKi of 9.03 pKi.

B2: chimeric relaxin polypeptide H2 B chain/INSL5 A chain (designed binder)
chain 1: DSWMEEVIKLCGRELVRAQIAICGMSTWS
chain 2: DLQTLCCTDGCSMTDLSALC
notes: Synthetic two-chain chimera; The synthesis protocol is detailed only for H2-B/H1-A; also called H2-B/INSL5-A
As to B2, the “LGR7 cAMP pEC50” value in assay [2] stood at 6.37 pEC50. The same molecule returned a pKi in assay [3] of 5.31 pKi.

B3: chimeric relaxin polypeptide H2 B chain/H3 relaxin A chain (designed binder)
chain 1: DSWMEEVIKLCGRELVRAQIAICGMSTWS
chain 2: DVLAGLSSSCCKWGCSKSEISSLC
notes: Synthetic two-chain chimera; The synthesis protocol is detailed only for H2-B/H1-A; also called H2-B/H3-A
Consider B3, for which the “LGR8 cAMP pEC50” value in assay [1] is 5.34 pEC50. Also, the “LGR7 cAMP pEC50” value in assay [2] stood at 8.1 pEC50. In addition, the pKi in assay [3] turned out to be 6.8 pKi.

B4: chimeric relaxin polypeptide H2 B chain/INSL3 A chain (designed binder)
chain 1: DSWMEEVIKLCGRELVRAQIAICGMSTWS
chain 2: AAATNPARYCCLSGCTQQDLLTLCPY
notes: Synthetic two-chain chimera; The synthesis protocol is detailed only for H2-B/H1-A; also called H2-B/INSL3-A
On to B4, for which, in assay [1], the “LGR8 cAMP pEC50” value was over 6 pEC50. The “LGR7 cAMP pEC50” value in assay [2] was under 6 pEC50. Further, the pKi in assay [3] amounted to 6.21 pKi.

B5: human relaxin 3 (H3), wild-type; A + B chain (ligand)
chain 1: RAAPYGVRLCGREFIRAVIFTCGGSRW
chain 2: DVLAGLSSSCCKWGCSKSEISSLC
modifications: disulfide (positions not given here); also: A and B chains joined by disulphide bonds, places not given here
notes: domain: B chain; Two-chain peptide hormone, A and B chains joined by disulphide bonds; also called H3 relaxin
As to B5, the “LGR7 cAMP pEC50” value in assay [2] worked out at 9.36 pEC50. In assay [3], this molecule showed a pKi of 7.88 pKi.
